From article PMC7108423 (The International Journal of Biochemistry & Cell Biology, 2005)
Like-named read-outs stand apart in the source and are kept apart here.

B1: His-tagged SARS-CoV ME (endodomain of M protein, aa102-221) (domain or fragment)
chain: FARTRSMWSFNPETNILLNVPLRGTIVTRPLMESELVIGAVIIRGHLRMAGHSLGRCDIKDLPKEITVATSRTLSYYKLGASQRVGTDSGFAAYNRYRIGNYKLNTDHAGSNDNIALLVQ

Legend:
Assay in all cases: SPR
[1] = biological target: T1, recombinant SARS-CoV N protein (SARS coronavirus (SARS-CoV), UniProt P59595 1-422)
[2] = biological target: T1, recombinant SARS-CoV N protein; remark: listed apart in the source
[3] = biological target: T1, recombinant SARS-CoV N protein; remark: listed apart in the source
[4] = biological target: His-tagged N11 (aa283-422 of SARS-CoV N protein) (SARS coronavirus (SARS-CoV), UniProt P59595 283-422)
Chain of His-tagged N11 (aa283-422 of SARS-CoV N protein) (P59595 283-422): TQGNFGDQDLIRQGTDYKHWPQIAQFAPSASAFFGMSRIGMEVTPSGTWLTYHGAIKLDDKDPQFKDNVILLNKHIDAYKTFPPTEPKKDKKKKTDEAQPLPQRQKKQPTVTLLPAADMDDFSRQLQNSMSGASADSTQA

T1 sequence (P59595 whole entry): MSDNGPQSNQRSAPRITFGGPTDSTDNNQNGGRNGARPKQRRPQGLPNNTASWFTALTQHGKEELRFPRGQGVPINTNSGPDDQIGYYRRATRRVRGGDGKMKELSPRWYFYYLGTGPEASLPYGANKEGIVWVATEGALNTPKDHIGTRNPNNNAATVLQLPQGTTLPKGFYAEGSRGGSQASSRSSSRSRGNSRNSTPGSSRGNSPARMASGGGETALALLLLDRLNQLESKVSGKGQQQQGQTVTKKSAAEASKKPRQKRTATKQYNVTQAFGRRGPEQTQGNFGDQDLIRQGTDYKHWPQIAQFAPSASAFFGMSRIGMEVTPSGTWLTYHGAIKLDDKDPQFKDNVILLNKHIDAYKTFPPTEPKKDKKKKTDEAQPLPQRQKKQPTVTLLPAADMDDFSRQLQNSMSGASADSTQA

Row | Binder | Kd [1] | Kd [2] | Kd [3] | koff [3] | kon [3] | Kd [4]
1 | B1 | 49.2 µM | 21.2 µM | 0.55 ± 0.04 µM | 0.00223 s⁻¹ | 4180 M⁻¹ s⁻¹ | 0.61 ± 0.06 µM
2 | RYRIGNYKLNTDHAGSNDNIALLVQ [MCT peptide (residues 197-221 of SARS-CoV M protein)] |  |  | 75 ± 5 µM | 0.0394 ± 0.002 s⁻¹ | 509 ± 42 M⁻¹ s⁻¹ | 
